Values joined by “and” are separate entries in the source; they are usually repeats but may differ in a detail not shown here. Equal entries are not always repeated.
Target: Death Receptor 5 (UniProt O14763)
Assay: cell-based or functional assay

Substance | IC50 of cell killing (cell viability, CellTiter-Glo, 24 h), CAPAN-1 cells | IC50 of cell killing (cell viability, CellTiter-Glo, 24 h), Colo 205 cells | IC50 of cell killing (cell viability, CellTiter-Glo, 24 h), H2122 cells | IC50 of cell killing (cell viability, CellTiter-Glo, 24 h), H2228 cells | IC50 of cell killing (cell viability, CellTiter-Glo, 24 h), HT29 cells | IC50 of cell killing (cell viability, CellTiter-Glo, 24 h), HTC15 cells | IC50 of cell killing (cell viability, CellTiter-Glo, 24 h), MDA-BD231 cells | IC50 of cell killing (cell viability, CellTiter-Glo, 24 h), SW948 cells | further results
Conatumumab Multabody (from UniProt P02792 91-175) | 0.002 µg/mL and 0.00087 nM | 0.16 pM | 0.00015 µg/mL and 6.4e-05 nM | 0.031 µg/mL and 0.013 nM | 0.0024 µg/mL and 0.001 nM | 0.00053 µg/mL and 0.00023 nM | 0.00071 µg/mL and 0.00031 nM | 0.16 pM | 
Tigatuzumab Multabody (from UniProt P02792 1-175; P02792 1-175) | 0.0026 µg/mL and 0.0011 nM | 0.00085 µg/mL and 0.00037 nM | 0.00014 µg/mL and 5.9e-05 nM | 0.015 µg/mL and 0.0067 nM | 0.0084 µg/mL and 0.0037 nM | 0.002 µg/mL and 0.00087 nM | 0.00052 nM and 0.0012 µg/mL | 0.00037 µg/mL and 0.00016 nM | Fold-change of killing IC50, MB vs parental IgG, mass basis, CAPAN-1 cells: > 5000 fold; Fold-change of killing IC50, MB vs parental IgG, mass basis, Colo 205 cells: > 11800 fold; Fold-change of killing IC50, MB vs parental IgG, mass basis, H2122 cells: 2940 fold; Fold-change of killing IC50, MB vs parental IgG, mass basis, H2228 cells: > 651 fold; Fold-change of killing IC50, MB vs parental IgG, mass basis, HT29 cells: > 1190 fold; Fold-change of killing IC50, MB vs parental IgG, mass basis, HTC15 cells: > 5000 fold; Fold-change of killing IC50, MB vs parental IgG, mass basis, MDA-BD231 cells: > 8400 fold; Fold-change of killing IC50, MB vs parental IgG, mass basis, SW948 cells: > 27000 fold; Fold-change of killing IC50, MB vs parental IgG, molar basis, CAPAN-1 cells: > 59300 fold; Fold-change of killing IC50, MB vs parental IgG, molar basis, Colo 205 cells: > 181000 fold; Fold-change of killing IC50, MB vs parental IgG, molar basis, H2122 cells: 45600 fold; Fold-change of killing IC50, MB vs parental IgG, molar basis, H2228 cells: > 10000 fold; Fold-change of killing IC50, MB vs parental IgG, molar basis, HT29 cells: > 18300 fold; Fold-change of killing IC50, MB vs parental IgG, molar basis, HTC15 cells: > 77000 fold; Fold-change of killing IC50, MB vs parental IgG, molar basis, MDA-BD231 cells: > 129000 fold; Fold-change of killing IC50, MB vs parental IgG, molar basis, SW948 cells: > 416000 fold
